# Results reported in patent US20150074844A1 (PURDUE RESEARCH FOUNDATION, published 2015).
# T1: PYL13-cLUC (Arabidopsis thaliana, UniProt Q9SN51 1-164)
# T1 construct: LUC complementation assay in protoplasts; also called PYL13 fused to the C-terminal domain of LUC; not shown: C-terminal domain of firefly luciferase
# T1 sequence: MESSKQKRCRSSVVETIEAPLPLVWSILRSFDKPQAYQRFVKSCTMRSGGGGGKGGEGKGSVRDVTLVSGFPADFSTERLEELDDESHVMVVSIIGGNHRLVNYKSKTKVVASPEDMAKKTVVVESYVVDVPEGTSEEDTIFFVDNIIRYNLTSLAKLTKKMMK
# T2: PP2CA-HA (Arabidopsis, UniProt P49598 1-399)
# T2 construct: also called hemagglutinin (HA)-tagged PP2CA; not shown: HA tag
# T2 sequence (looked up): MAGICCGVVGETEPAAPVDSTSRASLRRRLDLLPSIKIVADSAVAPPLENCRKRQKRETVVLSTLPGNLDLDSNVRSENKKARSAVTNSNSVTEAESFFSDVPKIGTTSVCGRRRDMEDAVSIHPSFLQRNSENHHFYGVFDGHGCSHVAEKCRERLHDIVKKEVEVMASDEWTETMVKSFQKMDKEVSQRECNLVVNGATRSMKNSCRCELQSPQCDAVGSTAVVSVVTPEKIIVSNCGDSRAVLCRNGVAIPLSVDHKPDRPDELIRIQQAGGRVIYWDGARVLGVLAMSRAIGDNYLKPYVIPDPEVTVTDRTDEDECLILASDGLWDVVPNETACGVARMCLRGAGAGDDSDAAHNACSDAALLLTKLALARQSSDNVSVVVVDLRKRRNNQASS
# T3: PYL6 fused to the GAL4-DNA binding domain (BD) (Arabidopsis thaliana, UniProt Q8S8E3 1-215)
# T3 construct: Yeast two-hybrid construct
# T3 sequence: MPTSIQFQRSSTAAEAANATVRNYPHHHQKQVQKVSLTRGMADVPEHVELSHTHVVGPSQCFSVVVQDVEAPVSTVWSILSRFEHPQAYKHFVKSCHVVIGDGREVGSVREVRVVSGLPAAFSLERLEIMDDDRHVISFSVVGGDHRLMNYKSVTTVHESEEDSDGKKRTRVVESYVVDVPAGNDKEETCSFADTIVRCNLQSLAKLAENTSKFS
# T4: PYL3 fused to the GAL4-DNA binding domain (BD) (Arabidopsis thaliana, UniProt Q9SSM7 1-209)
# T4 construct: Yeast two-hybrid construct
# T4 sequence: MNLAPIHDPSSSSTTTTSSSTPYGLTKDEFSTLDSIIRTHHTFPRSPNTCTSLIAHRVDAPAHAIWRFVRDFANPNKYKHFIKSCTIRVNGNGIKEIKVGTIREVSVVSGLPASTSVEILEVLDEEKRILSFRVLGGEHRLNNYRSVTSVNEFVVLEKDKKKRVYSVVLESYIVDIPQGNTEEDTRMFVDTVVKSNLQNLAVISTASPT
# T5: PYR1 fused to the GAL4-DNA binding domain (BD) (Arabidopsis thaliana, UniProt O49686 1-191)
# T5 construct: Yeast two-hybrid construct
# T5 sequence: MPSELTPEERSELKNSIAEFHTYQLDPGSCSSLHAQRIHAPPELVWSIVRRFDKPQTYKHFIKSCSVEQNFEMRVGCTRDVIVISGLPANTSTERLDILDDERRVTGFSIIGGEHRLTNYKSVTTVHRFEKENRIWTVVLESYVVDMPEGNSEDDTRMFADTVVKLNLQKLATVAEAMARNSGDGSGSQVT
# T6: PYL4 fused to the GAL4-DNA binding domain (BD) (Arabidopsis thaliana, UniProt O80920 1-207)
# T6 construct: Yeast two-hybrid construct
# T6 sequence: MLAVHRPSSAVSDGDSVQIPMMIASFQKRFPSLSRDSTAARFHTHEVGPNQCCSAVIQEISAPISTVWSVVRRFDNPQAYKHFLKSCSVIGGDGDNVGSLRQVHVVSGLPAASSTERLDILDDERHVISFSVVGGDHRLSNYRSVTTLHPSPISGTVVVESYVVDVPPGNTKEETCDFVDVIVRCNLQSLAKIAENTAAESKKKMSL
# B1: PYL11 fused to the GAL4-DNA binding domain (BD) (receptor, not shown: small tags and cut ends)
# chain: METSQKYHTCGSTLVQTIDAPLSLVWSILRRFDNPQAYKQFVKTCNLSSGDGGEGSVREVTVVSGLPAEFSRERLDELDDESHVMMISIIGGDHRLVNYRSKTMAFVAADTEEKTVVVESYVVDVPEGNSEEETTSFADTIVGFNLKSLAKLSERVAHLKL
# notes: Yeast two-hybrid construct
# B2: PYL11-nLUC (receptor)
# chain: METSQKYHTCGSTLVQTIDAPLSLVWSILRRFDNPQAYKQFVKTCNLSSGDGGEGSVREVTVVSGLPAEFSRERLDELDDESHVMMISIIGGDHRLVNYRSKTMAFVAADTEEKTVVVESYVVDVPEGNSEEETTSFADTIVGFNLKSLAKLSERVAHLKL
# notes: LUC complementation assay in protoplasts; also called PYLs-nLUC; not shown: N-terminal domain of firefly luciferase
# B3: PYL12 fused to the GAL4-DNA binding domain (BD) (receptor, not shown: large carriers; small tags and cut ends)
# chain: MKTSQEQHVCGSTVVQTINAPLPLVWSILRRFDNPKTFKHFVKTCKLRSGDGGEGSVREVTVVSDLPASFSLERLDELDDESHVMVISIIGGDHRLVNYQSKTTVFVAAEEEKTVVVESYVVDVPEGNTEEETTLFADTIVGCNLRSLAKLSEKMMELT
# notes: Yeast two-hybrid construct
# B4: c-myc-tagged PYL13 (other)
# chain: MESSKQKRCRSSVVETIEAPLPLVWSILRSFDKPQAYQRFVKSCTMRSGGGGGKGGEGKGSVRDVTLVSGFPADFSTERLEELDDESHVMVVSIIGGNHRLVNYKSKTKVVASPEDMAKKTVVVESYVVDVPEGTSEEDTIFFVDNIIRYNLTSLAKLTKKMMK
# notes: Transiently expressed in Col-0 protoplasts for co-IP; also called c-myc-PYL13; MYC-PYL13; not shown: c-myc tag
# B5: PYL13 fused to the GAL4-activating domain (AD) (other, not shown: large carriers)
# chain: MESSKQKRCRSSVVETIEAPLPLVWSILRSFDKPQAYQRFVKSCTMRSGGGGGKGGEGKGSVRDVTLVSGFPADFSTERLEELDDESHVMVVSIIGGNHRLVNYKSKTKVVASPEDMAKKTVVVESYVVDVPEGTSEEDTIFFVDNIIRYNLTSLAKLTKKMMK
# notes: also called AD-PYL13
# How the values were obtained:
# [1] = target: ABI1 without tag (purified recombinant) (Arabidopsis) (UniProt P49597); experiment: cell-based or functional assay
# [2] = target: B5; experiment: yeast two-hybrid, growth on media lacking His and His/Ade, with and without ABA
# Experimental: (§1) To confirm the interaction between PYL13 and PYL2/PYL9 and to determine whether PYL13 may bind with other PYLs, the interaction of PYL13 with PYLs was examined in yeast two-hybrid assays, as shown in FIG. 5. In this experiment, PYL13 interacted with PYR1, PYL1-4, PYL6, and PYL11-12 in an ABA-independent manner (FIG. 5A). PYL13 fused to the GAL4-activating domain (AD) was used as prey, and PYLs fused to the GAL4-DNA binding domain (BD) were used as baits. Interaction was determined by growth assay on media lacking His and His/Ade in the presence and absence of ABA. Dilutions (10⁻¹, 10⁻², and 10⁻³) of saturated cultures were spotted onto the plates, which were photographed after five days. […] Without wishing to be bound by theory, the lack of interaction between […] and PYL9 may be caused by the cellular differences between yeast and Arabidopsis or because of indirect interactions between the two proteins in Arabidopsis.
# PYL13-cLUC = target: T1, PYL13-cLUC; experiment: firefly luciferase complementation in protoplasts (stronger group)
# Experimental: To further characterize the interactions between PYL13 and PYLs in vivo, their interactions in protoplasts were examined by the firefly luciferase (LUC) complementation assay. PYL13 was fused to the C-terminal domain of LUC (PYL13-cLUC), and PYLs were fused to the N-terminal domain of LUC (PYLs-nLUC), and co-expressed in protoplasts. After transfection, protoplasts were incubated overnight under light at room temperature, and the LUC activities in living protoplasts were measured. Error bars indicate s.e.m. (n=6). […] PYL13 binds more strongly to PYR1, PYL1-5, PYL7, and PYL10-11 than to PYL6, PYL8-9, or PYL13 (FIG. 5B).
# PP2CA-HA = target: T2, PP2CA-HA; experiment: co-IP from protoplasts with anti-HA agarose, western blot; with or without 10 µM ABA
# Source text: Coimmunoprecipitation (co-IP) assays using ABI1-HA and PP2CA-HA as baits captured c-myc-PYL13 in an ABA-independent manner (FIG. 3C). The binding of PP2CA with PYL13 again appeared much stronger than that of ABI1 with PYL13. […] Total soluble proteins (input) were extracted from Arabidopsis protoplasts that transiently expressed the indicated constructs. PP2C-interacting proteins were immunoprecipitated with anti-HA mouse antibodies and detected with anti-HA and anti-cMYC rabbit antibodies.
# PP2CA-HA, ABI1-HA, and MYC-PYL13 plasmids (20 μg each) were transiently expressed in wild-type (Col-0) protoplasts. After transfection, protoplasts were incubated in WI buffer under light at room temperature for 16.5 h. Protoplasts were treated with 10 μM ABA for 1.5 h before they were harvested, frozen in liquid N2, and stored at −80° C. The frozen protoplasts were resuspended in 1 ml of immunoprecipitation (IP) buffer containing 50 mM Tris-HCl, pH 7.4, 150 mM NaCl, 1 mM EDTA, 0.1% (v/v) Triton X-100, and 1× protease inhibitor cocktail (SIGMA) with or without 10 μM ABA and then centrifuged at 21000 g for 30 min at 4° C. The supernatant was used as input and was incubated for 4 h at 4° C. with 30 μl of monoclonal anti-HA-agarose antibody produced in mouse (SIGMA, A2095). […]
# [3] = target: T3, PYL6 fused to the GAL4-DNA binding …; experiment: yeast two-hybrid, growth on media lacking His and His/Ade, with and without ABA
# Experimental: as §1
# [4] = target: T4, PYL3 fused to the GAL4-DNA binding …; experiment: as above
# Experimental: as §1
# [5] = target: T5, PYR1 fused to the GAL4-DNA binding …; experiment: as above
# Experimental: as §1
# [6] = target: T6, PYL4 fused to the GAL4-DNA binding …; experiment: as above
# Experimental: as §1
# Chain of ABI1 without tag (purified recombinant) (Arabidopsis) (P49597 whole entry): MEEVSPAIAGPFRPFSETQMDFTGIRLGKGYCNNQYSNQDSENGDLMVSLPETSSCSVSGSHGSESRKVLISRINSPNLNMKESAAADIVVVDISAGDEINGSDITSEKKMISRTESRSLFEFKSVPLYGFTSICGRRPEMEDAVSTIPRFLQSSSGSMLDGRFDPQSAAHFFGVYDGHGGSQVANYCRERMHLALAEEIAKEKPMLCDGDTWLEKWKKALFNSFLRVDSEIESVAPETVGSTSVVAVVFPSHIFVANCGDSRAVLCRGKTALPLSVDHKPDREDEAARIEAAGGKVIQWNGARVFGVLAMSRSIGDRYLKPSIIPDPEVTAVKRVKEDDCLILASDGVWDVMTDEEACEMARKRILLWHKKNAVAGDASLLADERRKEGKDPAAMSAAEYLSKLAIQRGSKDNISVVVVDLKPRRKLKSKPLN
molecule,measurement,setting,value
PYL13-PYL2 protein complex (from UniProt Q9SN51 1-164; O80992 1-190),"ABI1 phosphatase activity (pNPP, A405, % of ABI1 without ABA and PYLs), 10 µM ABA",[1],78%
"PYL2 (purified recombinant protein, phosphatase assay) (from UniProt O80992 1-190) (receptor)","ABI1 phosphatase activity (pNPP, A405, % of ABI1 without ABA and PYLs), 10 µM ABA, 0.3 µM each",[1],50%
"PYL1 (purified recombinant protein, phosphatase assay) (from UniProt Q8VZS8 1-221) (receptor)","ABI1 phosphatase activity (pNPP, A405, % of ABI1 without ABA and PYLs), 10 µM ABA, 0.3 µM each",[1],67%
PYL13-PYL1 protein complex (from UniProt Q9SN51 1-164; Q8VZS8 1-221),"ABI1 phosphatase activity (pNPP, A405, % of ABI1 without ABA and PYLs), 10 µM ABA",[1],88%
B1,binding result,[2],binds
B2,binding result,PYL13-cLUC,binds
B3,binding result,[2],binds
B4,binding result,PP2CA-HA,binds
B5,binding result,[3],binds
same,binding result,[4],binds
same,binding result,[5],binds
same,binding result,[6],binds
